From patent publication US20230407373A1 (priority 2020, published 2023)

Legend:
[1] = tested on: gRNA of HCoV-OC43; assay type: binding; details: type n_48_v: 48 hours post-infection; for background (spectral count, no-probe control): no-probe control on infected cells; for target (spectral count, OC43 Probe I RNP capture): infected cells, unweighted spectral count
[2] = tested on: HCoV-OC43 gRNA and sgRNA; assay type: binding; details: for target (unweighted spectral count): OC43 Probe II, 12 hpi (type n_12_v), infected cells, tested against no-probe control

B1: HNANPF (protein, UniProt P52597 1-415, looked up)
Heterogeneous nuclear …: MMLGPEGGEGFVVKLRGLPWSCSVEDVQNFLSDCTIHDGAAGVHFIYTREGRQSGEAFVELGSEDDVKMALKKDRESMGHRYIEVFKSHRTEMDWVLKHSGPNSADSANDGFVRLRGLPFGCTKEEIVQFFSGLEIVPNGITLPVDPEGKITGEAFVQFASQELAEKALGKHKERIGHRYIEVFKSSQEEVRSYSDPPLKFMSVQRPGPYDRPGTARRYIGIVKQAGLERMRPGAYSTGYGGYEEYSGLSDGYGFTTDLFGRDLSYCLSGMYDHRYGDSEFTVQSTTGHCVHMRGLPYKATENDIYNFFSPLNPVRVHIEIGPDGRVTGEADVEFATHEEAVAAMSKDRANMQHRYIELFLNSTTGASNGAYSSQVMQGMGVSAAQATYSGLESQSVSGCYGAGYSGQNSMGGYD
- background (spectral count, no-probe control) [1]: 4

B2: MSN (protein, UniProt P26038 2-577, looked up)
Moesin: PKTISVRVTTMDAELEFAIQPNTTGKQLFDQVVKTIGLREVWFFGLQYQDTKGFSTWLKLNKKVTAQDVRKESPLLFKFRAKFYPEDVSEELIQDITQRLFFLQVKEGILNDDIYCPPETAVLLASYAVQSKYGDFNKEVHKSGYLAGDKLLPQRVLEQHKLNKDQWEERIQVWHEEHRGMLREDAVLEYLKIAQDLEMYGVNYFSIKNKKGSELWLGVDALGLNIYEQNDRLTPKIGFPWSEIRNISFNDKKFVIKPIDKKAPDFVFYAPRLRINKRILALCMGNHELYMRRRKPDTIEVQQMKAQAREEKHQKQMERAMLENEKKKREMAEKEKEKIEREKEELMERLKQIEEQTKKAQQELEEQTRRALELEQERKRAQSEAEKLAKERQEAEEAKEALLQASRDQKKTQEQLALEMAELTARISQLEMARQKKESEAVEWQQKAQMVQEDLEKTRAELKTAMSTPHVAEPAENEQDEQDENGAEASADLRADAMAKDRSEEERTTEAEKNERVQKHLKALTSELANARDESKKTANDMIHAENMRLGRDKYKTLRQIRQGNTKQRIDEFESM
- target (spectral count, OC43 Probe I RNP capture) [1]: 5
- background (spectral count, no-probe control) [1]: 1

B3: POLG (protein, UniProt P54098 1-1239, looked up)
DNA polymerase subunit gamma-1: MSRLLWRKVAGATVGPGPVPAPGRWVSSSVPASDPSDGQRRRQQQQQQQQQQQQQPQQPQVLSSEGGQLRHNPLDIQMLSRGLHEQIFGQGGEMPGEAAVRRSVEHLQKHGLWGQPAVPLPDVELRLPPLYGDNLDQHFRLLAQKQSLPYLEAANLLLQAQLPPKPPAWAWAEGWTRYGPEGEAVPVAIPEERALVFDVEVCLAEGTCPTLAVAISPSAWYSWCSQRLVEERYSWTSQLSPADLIPLEVPTGASSPTQRDWQEQLVVGHNVSFDRAHIREQYLIQGSRMRFLDTMSMHMAISGLSSFQRSLWIAAKQGKHKVQPPTKQGQKSQRKARRGPAISSWDWLDISSVNSLAEVHRLYVGGPPLEKEPRELFVKGTMKDIRENFQDLMQYCAQDVWATHEVFQQQLPLFLERCPHPVTLAGMLEMGVSYLPVNQNWERYLAEAQGTYEELQREMKKSLMDLANDACQLLSGERYKEDPWLWDLEWDLQEFKQKKAKKVKKEPATASKLPIEGAGAPGDPMDQEDLGPCSEEEEFQQDVMARACLQKLKGTTELLPKRPQHLPGHPGWYRKLCPRLDDPAWTPGPSLLSLQMRVTPKLMALTWDGFPLHYSERHGWGYLVPGRRDNLAKLPTGTTLESAGVVCPYRAIESLYRKHCLEQGKQQLMPQEAGLAEEFLLTDNSAIWQTVEELDYLEVEAEAKMENLRAAVPGQPLALTARGGPKDTQPSYHHGNGPYNDVDIPGCWFFKLPHKDGNSCNVGSPFAKDFLPKMEDGTLQAGPGGASGPRALEINKMISFWRNAHKRISSQMVVWLPRSALPRAVIRHPDYDEEGLYGAILPQVVTAGTITRRAVEPTWLTASNARPDRVGSELKAMVQAPPGYTLVGADVDSQELWIAAVLGDAHFAGMHGCTAFGWMTLQGRKSRGTDLHSKTATTVGISREHAKIFNYGRIYGAGQPFAERLLMQFNHRLTQQEAAEKAQQMYAATKGLRWYRLSDEGEWLVRELNLPVDRTEGGWISLQDLRKVQRETARKSQWKKWEVVAERAWKGGTESEMFNKLESIATSDIPRTPVLGCCISRALEPSAVQEEFMTSRVNWVVQSSAVDYLHLMLVAMKWLFEEFAIDGRFCISIHDEVRYLVREEDRYRAALALQITNLLTRCMFAYKLGLNDLPQSVAFFSAVDIDRCLRKEVTMDCKTPSNPTGMERRYGIPQGEALDIYQIIELTKGSLEKRSQPGP
- target (unweighted spectral count) [2]: 5

B4: ATXN2 ? (protein, UniProt Q99700 1-1313, looked up)
Ataxin-2: MRSAAAAPRSPAVATESRRFAAARWPGWRSLQRPARRSGRGGGGAAPGPYPSAAPPPPGPGPPPSRQSSPPSASDCFGSNGNGGGAFRPGSRRLLGLGGPPRPFVVLLLPLASPGAPPAAPTRASPLGARASPPRSGVSLARPAPGCPRPACEPVYGPLTMSLKPQQQQQQQQQQQQQQQQQQQQQQQPPPAAANVRKPGGSGLLASPAAAPSPSSSSVSSSSATAPSSVVAATSGGGRPGLGRGRNSNKGLPQSTISFDGIYANMRMVHILTSVVGSKCEVQVKNGGIYEGVFKTYSPKCDLVLDAAHEKSTESSSGPKREEIMESILFKCSDFVVVQFKDMDSSYAKRDAFTDSAISAKVNGEHKEKDLEPWDAGELTANEELEALENDVSNGWDPNDMFRYNEENYGVVSTYDSSLSSYTVPLERDNSEEFLKREARANQLAEEIESSAQYKARVALENDDRSEEEKYTAVQRNSSEREGHSINTRENKYIPPGQRNREVISWGSGRQNSPRMGQPGSGSMPSRSTSHTSDFNPNSGSDQRVVNGGVPWPSPCPSPSSRPPSRYQSGPNSLPPRAATPTRPPSRPPSRPSRPPSHPSAHGSPAPVSTMPKRMSSEGPPRMSPKAQRHPRNHRVSAGRGSISSGLEFVSHNPPSEAATPPVARTSPSGGTWSSVVSGVPRLSPKTHRPRSPRQNSIGNTPSGPVLASPQAGIIPTEAVAMPIPAASPTPASPASNRAVTPSSEAKDSRLQDQRQNSPAGNKENIKPNETSPSFSKAENKGISPVVSEHRKQIDDLKKFKNDFRLQPSSTSESMDQLLNKNREGEKSRDLIKDKIEPSAKDSFIENSSSNCTSGSSKPNSPSISPSILSNTEHKRGPEVTSQGVQTSSPACKQEKDDKEEKKDAAEQVRKSTLNPNAKEFNPRSFSQPKPSTTPTSPRPQAQPSPSMVGHQQPTPVYTQPVCFAPNMMYPVPVSPGVQPLYPIPMTPMPVNQAKTYRAVPNMPQQRQDQHHQSAMMHPASAAGPPIAATPPAYSTQYVAYSPQQFPNQPLVQHVPHYQSQHPHVYSPVIQGNARMMAPPTHAQPGLVSSSATQYGAHEQTHAMYACPKLPYNKETSPSFYFAISTGSLAQQYAHPNATLHPHTPHPQPSATPTGQQQSQHGGSHPAPSPVQHHQHQAAQALHLASPQQQSAIYHAGLAPTPPSMTPASNTQSPQNSFPAAQQTVFTIHPSHVQPAYTNPPHMAHVPQAHVQSGMVPSHPTAHAPMMLMTTQPPGGPQAALAQSALQPIPVSTTAHFPYMTHPSVQAHHQQQL
- target (spectral count, OC43 Probe I RNP capture) [1]: 12
- background (spectral count, no-probe control) [1]: 1

B5: RNPS1 (protein, UniProt Q15287 1-305, looked up)
RNA-binding protein with …: MDLSGVKKKSLLGVKENNKKSSTRAPSPTKRKDRSDEKSKDRSKDKGATKESSEKDRGRDKTRKRRSASSGSSSTRSRSSSTSSSGSSTSTGSSSGSSSSSASSRSGSSSTSRSSSSSSSSGSPSPSRRRHDNRRRSRSKSKPPKRDEKERKRRSPSPKPTKVHIGRLTRNVTKDHIMEIFSTYGKIKMIDMPVERMHPHLSKGYAYVEFENPDEAEKALKHMDGGQIDGQEITATAVLAPWPRPPPRRFSPPRRMLPPPPMWRRSPPRMRRRSRSPRRRSPVRRRSRSPGRRRHRSRSSSNSSR
- target (unweighted spectral count) [2]: 7

B6: TMPO (protein, UniProt P42166 2-694, looked up)
Lamina-associated polypeptide …: PEFLEDPSVLTKDKLKSELVANNVTLPAGEQRKDVYVQLYLQHLTARNRPPLPAGTNSKGPPDFSSDEEREPTPVLGSGAAAAGRSRAAVGRKATKKTDKPRQEDKDDLDVTELTNEDLLDQLVKYGVNPGPIVGTTRKLYEKKLLKLREQGTESRSSTPLPTISSSAENTRQNGSNDSDRYSDNEEGKKKEHKKVKSTRDIVPFSELGTTPSGGGFFQGISFPEISTRPPLGSTELQAAKKVHTSKGDLPREPLVATNLPGRGQLQKLASERNLFISCKSSHDRCLEKSSSSSSQPEHSAMLVSTAASPSLIKETTTGYYKDIVENICGREKSGIQPLCPERSHISDQSPLSSKRKALEESESSQLISPPLAQAIRDYVNSLLVQGGVGSLPGTSNSMPPLDVENIQKRIDQSKFQETEFLSPPRKVPRLSEKSVEERDSGSFVAFQNIPGSELMSSFAKTVVSHSLTTLGLEVAKQSQHDKIDASELSFPFHESILKVIEEEWQQVDRQLPSLACKYPVSSREATQILSVPKVDDEILGFISEATPLGGIQAASTESCNQQLDLALCRAYEAAASALQIATHTAFVAKAMQADISQAAQILSSDPSRTHQALGILSKTYDAASYICEAAFDEVKMAAHTMGNATVGRRYLWLKDCKINLASKNKLASTPFKGGTLFGGEVCKVIKKRGNKH
- target (unweighted spectral count) [2]: 4

B7: DBX3X: host protein, UniProt O00571 (protein, UniProt O00571 2-662, looked up)
ATP-dependent RNA helicase …: SHVAVENALGLDQQFAGLDLNSSDNQSGGSTASKGRYIPPHLRNREATKGFYDKDSSGWSSSKDKDAYSSFGSRSDSRGKSSFFSDRGSGSRGRFDDRGRSDYDGIGSRGDRSGFGKFERGGNSRWCDKSDEDDWSKPLPPSERLEQELFSGGNTGINFEKYDDIPVEATGNNCPPHIESFSDVEMGEIIMGNIELTRYTRPTPVQKHAIPIIKEKRDLMACAQTGSGKTAAFLLPILSQIYSDGPGEALRAMKENGRYGRRKQYPISLVLAPTRELAVQIYEEARKFSYRSRVRPCVVYGGADIGQQIRDLERGCHLLVATPGRLVDMMERGKIGLDFCKYLVLDEADRMLDMGFEPQIRRIVEQDTMPPKGVRHTMMFSATFPKEIQMLARDFLDEYIFLAVGRVGSTSENITQKVVWVEESDKRSFLLDLLNATGKDSLTLVFVETKKGADSLEDFLYHEGYACTSIHGDRSQRDREEALHQFRSGKSPILVATAVAARGLDISNVKHVINFDLPSDIEEYVHRIGRTGRVGNLGLATSFFNERNINITKDLLDLLVEAKQEVPSWLENMAYEHHYKGSSRGRSKSSRFSGGFGARDYRQSSGASSSSFSSSRASSSRSGGGGHGSSRGFGGGGYGGFYNSDGYGGNYNSQGVDWWGN
- target (spectral count) ([2]; type s_36_m, HCoV-OC43-infected HCT-8 cells, 36 hpi, Probe II): 7
- background (spectral count) ([2]; type s_36_m, uninfected-probe control, 36 hpi, Probe II): 1
